Results from patent US20130252821A1, “METHODS AND COMPOSITIONS FOR THE TREATMENT AND DIAGNOSIS OF DISEASES CHARACTERIZED BY VASCULAR LEAK, HYPOTENSION, OR A PROCOAGULANT STATE” (Beth Israel Deaconess Medical Center, Inc., priority 2005, published 2013).
Entries after “also recorded” stand apart in the source; their conditions may differ.

Assays:
Rac1 = Rac1 activity assay (pull-down); type: cell-based, human
Protocol: (§1) These were performed and quantified using the commercially available kit according to the manufacturer's instruction (Cytoskeleton, Denver, Colo.). After signal starvation, HMVEC-L were treated with vehicle, Ang-1 (100 ng/ml) with or without inhibitor for the indicated time and harvested with lysis buffer. Following a brief centrifugation to remove cell debris, lysates from the cells containing equivalent protein concentrations were incubated for 60 minutes with 40 μL slurry of a GST-fusion protein composed of Rac1 or RhoA effector proteins coupled to agarose beads. After washing with lysis buffer, samples were subjected to immunoblotting and detected with anti-Rac1 or anti-RhoA antibody (Santa Cruz Biotechnology, Santa Cruz, Calif.). Whole cell lysates were also run to determine the total amount of Rac1 or RhoA protein.

p190RhoGAP = p190RhoGAP phosphorylation in HMVEC-L; type: cell-based, human; conditions: Ang-1 100 ng/ml
Protocol: (§2) We lysed HMVEC-L with Triton buffer (50 mM Tris-HCl pH 8.0, 150 mM NaCl, 1% Triton X 100, and 5 mM EDTA) supplemented with protease inhibitors (Roche Diagnostics), 1 mM NaF and 1 mM Na3VO4, adjusting protein concentration by BCA protein assay (Pierce) and incubated 200 μg of total protein with anti-Tie2-Ab (clone Ab33, Upstate, Lake Placid, N.Y.) or p190RhoGAP Ab (Transduction laboratory, Lexington, Ky.) for 3 hours, followed by incubation with protein A sepharose (Zymed, San Francisco, Calif.) for 2 hours at 4° C. After washing the beads, proteins were eluted by heating in SDS-sample buffer and detected by immunoblotting with anti-phospho-tyrosine (clone 4G10, Upstate), anti-Tie-2 Ab, or anti-p190RhoGAP Ab.

HMVEC-L monolayer = assay: Measurement of endothelial permeability in vitro (FITC-albumin); type: cell-based, human
Protocol: Coster Transwell membranes (Corning Inc. Corning, N.Y.) were coated with 0.5% Gelatin and cells were grown until confluence. Vehicle or proteins with FITC-albumin (1 mg/ml) was added to the luminal chamber for 4 hours, and samples were taken from both the luminal and abluminal chamber for fluorometry analysis. The readings were converted with the use of a standard curve to albumin concentration. These concentrations were then used in the following equation to determine the permeability coefficient of albumin (Pa).
[A] is abluminal concentration; t is time in seconds; A is area of membrane in cm^2; V is volume of abluminal chamber; and [L] is luminal concentration. siRNA Transfection: HMVEC-Ls were seeded and control small interfering RNA (siRNA) (Ambion, Ausin, Tex.) or siRNA directed to human p190RhoGAP (5′-[…]-3′ SEQ ID NO: 5 and 5′-[…]-3′ SEQ ID NO: 6) was transfected using SilentFect Lipid reagent (Bio-Rad) according to the manufacturer's instructions. The cells were used for each experiment 3 days after transfection. Almost 90-100% cells were transfected with siRNA (checked by fluorescent labeled siRNA). Down-regulation of p190RhoGAP was verified by immunoblotting. We tested two different siRNA for the experiment and obtained similar results.

Tie2 = Tie2 phosphorylation by Ang-1 in HMVEC-L; type: cell-based, human; conditions: Ang-1 100 ng/ml, 15 minutes
Protocol: as §2

RhoA = assay: Rho activity assay (pull-down) in HMVEC-L; type: cell-based, human
Protocol: as §1

HMVEC-L monolayers = assay: Immunostaining of HMVEC-L bathed in HD IL-2 patient serum; type: cell-based, human; conditions: 1:10 serum for 30 minutes, then Ang-1 100 ng/mL
Protocol: Human pulmonary arterial microvascular endothelial cells (HMVECs) (Cambrex Bio Science, Walkersville, Md., United States) cells were cultured in EBM-2 (Cambrex Bio Science) supplemented with 5% fetal bovine serum (FBS) and growth factors according to the manufacturer's instructions. Serum starvation was performed by incubation in 0.25% FBS/EBM-2 for 24 hours.
HMVECs were grown to confluence on glass coverslips coated with 1% gelatin. The cells were fixed for 10 minutes in 4% paraformaldehyde in PBS, and incubated for 5 min in 0.5% Triton X-100 in PBS. After blocking, the monolayers were processed for staining with anti-VE-cadherin monoclonal antibody (BD Biosciences Pharmingen, San Diego, Calif., United States) and Alexa Fluor® 488 goat anti-mouse IgG, rhodamine phalloidin (Molecular Probes, Eugene, Oreg., […]) for F-actin staining and TOPRO-3-iodine (Molecular Probes) for nuclear staining. Fluorescence images were obtained using a Bio Rad MRC confocal fluorescence microscope. For experiments using cells treated with serum from patients, serum Ang-2 concentration was first measured by ELISA. Then, patient serum was diluted to 10% with EBM-2 and filtered with low-protein-binding PVL) F membrane (0.22 lm Millipore) prior to application on EC monolayers.

[1] = tested on: mice (female FVB strain), lung; assay: Lung histology after LPS; type: in vivo, mouse; conditions: Ang-1 10 μg ip x 2 doses
Protocol: Mice were treated as above and lungs were harvested, fixed in 10% formalin, embedded in paraffin, sectioned, and stained with hematoxilin and eosin. In Vivo Delivery of siRNA: Delivery of siRNA into mice was performed by TransIT® Hydrodynamic delivery solution (Mires, Madision, Wis.) per the manufacturer's instruction. Mice were injected with either 10 μg control siRNA or 10 μg p190RhoGAP siRNA in 2 nil delivery solution injected into the tail vein over 7 seconds. Four days later, p190RhoGAP knockdown was confirmed by lysing organs in RIPA buffer and performing Western analysis as outlined above. In vivo permeability and histological examination were performed as described above.

HMVEC-L = assay: Immunohistochemistry of HMVEC-L (F-actin, MLC-P, VE-cadherin); type: cell-based, human
Protocol: HMVEC-L were grown to confluent on glass coverslips coated with 0.1% gelatin (Attachment factor, Cascade Biologics, Portland, Oreg.) in 5% FBS/EGM2. […] We used rhodamine phalloidin (Molecular Probe) for F-actin staining and TOPRO®-3-iodine (Molecular Probe) for nuclear staining. Fluorescence images were obtained using a Bio Rad MRC confocal fluorescence microscope.

B1: Ang-1: Human recombinant angiopoietin-1 purchased from R&D systems; Tie-2 agonist, endogenous Ang-2 antagonist (protein, listed as Homo sapiens)
chain: MTVFLSFAFLAAILTHIGCSNQRRSPENSGRRYNRIQHGQCAYTFILPEHDGNCRESTTDQYNTNALQRDAPHVEPDFSSQKLQHLEHVMENYTQWLQKLENYIVENMKSEMAQIQQNAVQNHTATMLEIGTSLLSQTAEQTRKLTDVETQVLNQTSRLEIQLLENSLSTYKLEKQLLQQTNEILKIHEKNSLLEHKILEMEGKHKEELDTLKEEKENLQGLVTRQTYIIQELEKQLNRATTNNSVLQKQQLELMDTVHNLVNLCTKEGVLLKGGKREEEKPFRDCADVYQAGFNKSGIYTIYINNMPEPKKVFCNMDVNGGGWTVIQHREDGSLDFQRGWKEYKMGFGNPSGEYWLGNEFIFAITSQRQYMLRIELMDWEGNRAYSQYDRFHIGNEKQNYRLYLKGHTGTAGKQSSLILHGADFSTKDADNDNCMCKCALMLTGGWWFDACGPSNLNGMFYTAGQNHGKLNGIKWHYFKGPSYSLRSTTMMIRPLDF
- Rac1 activity (Rac1; HMVEC-L treated with Ang-1): increased within 15 minutes
- effect on endotoxin-induced change of Rac1 activity (Rac1; co-incubation with Ang-1): reversed
- phosphorylation of p190RhoGAP (p190RhoGAP): induces phosphorylation of p190RhoGAP
- basal monolayer permeability (HMVEC-L monolayer; Ang-1 100 ng/ml, 4 hours): somewhat decreased
- effect on endotoxin-induced permeability (HMVEC-L monolayer; LPS with Ang-1): completely reversed
- Tie2 phosphorylation (Tie2): induces Tie2 phosphorylation
- RhoA activity (RhoA; HMVEC-L treated with Ang-1): decreased 30 minutes after
- effect on endotoxin-induced RhoA activity (RhoA; co-incubation with Ang-1): reversed
- rescue of endothelial disruption by high Ang-2 HD IL-2 patient serum (HMVEC-L monolayers): significant attenuation in stress fiber formation; also recorded: rescue effect of Ang-1 was confirmed
- effect on LPS-induced edema and leukocyte infiltration [1]: reversed
- cytoskeleton and junction staining compared to control cells (HMVEC-L; Ang-1, confluent HMVEC-L, 30 min): increase in cortical actin, peripheral MLC-P, and increased VE-cadherin staining at cell junctions
- effect on endotoxin-induced structural derangements (HMVEC-L; endotoxin plus Ang-1): reverted the endotoxin-induced derangements to a normal appearance
